Reference: publication PMC6764022 (ACS Nano, 2019)
Where no end group is shown, it is not given here. [ ]: non-standard residue; d: D form. Lys(N3) = [N-]=[N+]=NCCCC[C@H](N)C(=O)O

B1: A2: DNA origami A decorated with two CC-Di-EK-α (other)
chain: GEIAALEQENAALEQKIAALKWKNAALKQG[Lys(N3)]-NH2
modifications: not fully specified; also: tag α hybridised to handle of DNA origami A, two copies per origami

How the values were obtained:
Test in all cases: counting of free and bound DNA origami nanostructures in electron micrographs (TEM); peptides displayed on DNA origamis A and B through oligonucleotide tags; gel-purified An and Bn mixed, total monomer concentrations 0.25-2.4 nM; background of random coincidences subtracted; Kd from the slope of a linear fit through the origin; additional systematic error of approximately 20%
[1] = target: T1, B2: DNA origami B decorated with two β-CC-Di-KE (azidonorleucine (Z) at the N-terminus, joined to oligonucleotide tag β, which is hybridised to a handle of DNA origami B); conditions: both partners purified
T1 chain: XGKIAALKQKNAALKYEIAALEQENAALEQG

[2] = target: the molecule itself
[3] = target: T2, B3: DNA origami B decorated with three β-CC-Di-KE (azidonorleucine (Z) at the N-terminus, joined to oligonucleotide tag β, which is hybridised to a handle of DNA origami B); conditions: both partners purified
T2 chain: T1 chain

Binder | Kd [1] [nM] | Kd [2] [nM] | Kd [3] [nM]
B1 | 25 ± 3 |  | 
GEIAALEQENAALEQKIAALKWKNAALKQG[Lys(N3)]-NH2 (other, also: tag α hybridised to handle of DNA origami A, three copies per origami) [A3: DNA origami A decorated with three CC-Di-EK-α] |  | 24 ± 4 | 0.7 ± 0.1
